Measurements published in patent publication US20210060185.

Legend:
[1] = target: T1, C-His Ana GvpC with TEV cleavage site (engineered Anabaena flos-aquae GvpC, TEV-sensitive)
T1 chain: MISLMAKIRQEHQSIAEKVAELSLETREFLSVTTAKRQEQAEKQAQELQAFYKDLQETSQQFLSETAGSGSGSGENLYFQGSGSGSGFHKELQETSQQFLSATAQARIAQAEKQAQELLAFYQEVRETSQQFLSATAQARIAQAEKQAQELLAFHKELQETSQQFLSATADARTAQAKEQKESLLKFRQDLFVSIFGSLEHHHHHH

WT C-His Ana GvpC = target: T2, WT C-His Ana GvpC
T2 chain: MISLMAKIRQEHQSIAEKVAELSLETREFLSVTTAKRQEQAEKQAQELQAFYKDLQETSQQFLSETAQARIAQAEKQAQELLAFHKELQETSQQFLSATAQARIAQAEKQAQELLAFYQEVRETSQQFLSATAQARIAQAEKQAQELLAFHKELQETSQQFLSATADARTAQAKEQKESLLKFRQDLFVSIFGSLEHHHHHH

[2] = target: T3, C-His Ana GvpC with calpain cleavage site (engineered Anabaena flos-aquae GvpC, calpain-sensitive)
T3 chain: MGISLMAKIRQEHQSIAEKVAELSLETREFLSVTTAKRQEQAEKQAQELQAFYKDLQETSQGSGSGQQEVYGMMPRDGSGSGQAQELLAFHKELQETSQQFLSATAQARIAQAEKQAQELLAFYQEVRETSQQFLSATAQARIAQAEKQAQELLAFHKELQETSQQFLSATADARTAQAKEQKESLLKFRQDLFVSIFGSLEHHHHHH

B1: recombinant TEV protease (Tobacco etch virus protease) (protein)
chain: GESLFKGPRDYNPISSTICHLTNESDGHTTSLYGIGFGPFIITNKHLFRRNNGTLLVQSLHGVFKVKNTTTLQQHLIDGRDMIIIRMPKDFPPFPQKLKFREPQREERICLVTTNFQTKSMSSMVSDTSCTFPSSDGIFWKHWIQTKDGQCGSPLVSTRDGFIVGIHSASNFTNTNNYFTSVPKNFMELLTNQEAQQWVSGWRLNADSVLWGGHKVFMSKPEEPFQPVKEATQLMNELVYSQ
cleavage on Coomassie-stained SDS-PAGE [1]: gel electrophoresis of GVSTEV after exposure to active TEV resulted in the appearance of the two cleaved GvpC fragments and a significant reduction in the intact GvpC band | hydrostatic collapse pressure midpoint (pressurized absorbance spectroscopy) [1]: ˜70 kPa reduction in its collapse pressure midpoint upon incubation with the active TEV protease | nonlinear (x-AM) ultrasound contrast-to-noise ratio enhancement [1]: a maximal contrast-to-noise ratio (CNR) enhancement of ˜7 dB at an applied acoustic pressure of 438 kPa | hydrostatic collapse pressure, nonlinear acoustic contrast and cleavage on SDS-PAGE (WT C-His Ana GvpC): showed no difference in their hydrostatic collapse pressure or nonlinear acoustic contrast in response to TEV protease (FIGS. 7I-7K), and no wild-type GvpC cleavage was seen upon gel electrophoresis

B2: calpain-1 from porcine erythrocytes (protein)
chain 1: MAEEVITPVYCTGVSAQVQKLRAKELGLGRHENAIKYLGQDYEQLRAHCLQSGSLFRDEAFPPVPQSLGFKELGPNSSKTYGVKWKRPTELFSNPQFIVDGATRTDICQGALGDCWLLAAIASLTLNDTLLHRVVPHGQSFQNGYAGIFHFQLWQFGEWVDVVVDDLLPTKDGKLVFVHSAQGNEFWSALLEKAYAKVNGSYEALSGGSTSEGFEDFTGGVTEWYELRKAPSDLYSIILKALERGSLLGCSIDISSVLDMEAVTFKKLVKGHAYSVTGAKQVNYQGQMVNLIRMRNPWGEVEWTGAWSDGSSEWNGVDPYQRDQLRVRMEDGEFWMSFRDFLREFTRLEICNLTPDALKSQRVRNWNTTLYEGTWRRGSTAGGCRNYPATFWVNPQFKIRLEETDDPEDDYGGRESGCSFVLALMQKHRRRERRFGRDMETIGFAVYEVPPELVGQPVHLKRDFFLANASRARSEQFINLREVSTRFRLPPGEYVVVPSTFEPNKEGDFVLRFFSEKKAGTQELDDQVQAILPDEQVLSEEEIDENFKALFRQLAGEDMEISVRELRTILNRIISKHKDLRTKGFSLESCRSMVNLMDRDGNGKLGLVEFNILWNRIRNYLSIFRKFDLDKSGSMSAYEMRMAIESAGFKLNKKLFELIITRYSEPDLAVDFDNFVCCLVRLETMFRFFKTLDTDLDGVVTFDLFKWLQLTMFA
chain 2: MFLVNSFLKGGGGGGGGGGGLGGGLGNVLGGLISGAGGGGGGGGGGGGGGGGGGTAMRILGGVISAISEAAAQYNPEPPPPRTHYSNIEANESEEVRQFRRLFAQLAGDDMEVSATELMNILNKVVTRHPDLKTDGFGIDTCRSMVAVMDSDTTGKLGFEEFKYLWNNIKKWQAIYKQFDVDRSGTIGSSELPGAFEAAGFHLNEHLYSMIIRRYSDEGGNMDFDNFISCLVRLDAMFRAFKSLDKDGTGQIQVNIQEWLQLTMYS
cleavage on Coomassie-stained SDS-PAGE [2]: Electrophoretic analysis confirmed cleavage and partial dissociation of the cleaved fragments from the GV surface | collapse pressure after exposure to calpain and calcium (FIG. 8B) [2]: ˜290 kPa compared to 336-344 kPa | hydrostatic collapse pressure (pressurized absorbance spectroscopy) [2]: an approximately 50 kPa decrease in hydrostatic collapse pressure in the presence of the enzyme and its ionic activator | nonlinear (x-AM) ultrasound contrast [2]: the maximal nonlinear sensor contrast of GVScalp of approximately 7 dB | nonlinear contrast to noise ratio with calpain and calcium (FIG. 8G) [2]: (+Calp/+Ca^2+) shows a stronger nonlinear ratio (CNR=10.3) | cleavage on SDS-PAGE, GV collapse pressure and ultrasound response (WT C-His Ana GvpC): showed no proteolytic cleavage, change in GV collapse pressure or ultrasound response, after incubation with calcium-activated calpain
